Our source for the abundance fitness values is the Human Domainome abundance scans (Beltran et al. 2025).

The labels stand for the following.
B1: Death-inducer obliterator 1, residues 263 to 321; numbered along this chain, Q9BTC0 (parent)
chain: GYDPNALYCICRQPHNNRFMICCDRCEEWFHGDCVGISEARGRLLERNGEDYICPNCTI

± gives the uncertainty stated by the source.

In the data set the parent is B1. As to the kind of experiment: abundance fitness (aPCA) (normalised: wild type 0, dead -1); higher = more abundant; growth selection in yeast, the domain comes from the species named. To be noted: Homo sapiens.
As to GYDPNALYCICRQPHQNRFMICCDRCEEWFHGDCVGISEARGRLLERNGEDYICPNCTI, the abundance fitness came to 0.027 ± 0.12.
Next, GYDPNALYCICRQPHSNRFMICCDRCEEWFHGDCVGISEARGRLLERNGEDYICPNCTI: -0.119 ± 0.058; GYDPNALYCICRQPHWNRFMICCDRCEEWFHGDCVGISEARGRLLERNGEDYICPNCTI: -0.072 ± 0.12.
Next, GYDPNALYCICRQPHGNRFMICCDRCEEWFHGDCVGISEARGRLLERNGEDYICPNCTI: 0.152 ± 0.069; GYDPNALYCICRQPHDNRFMICCDRCEEWFHGDCVGISEARGRLLERNGEDYICPNCTI: -0.049 ± 0.091; GYDPNALYCICRQPHINRFMICCDRCEEWFHGDCVGISEARGRLLERNGEDYICPNCTI: -0.109 ± 0.1.
Next, GYDPNALYCICRQPHFNRFMICCDRCEEWFHGDCVGISEARGRLLERNGEDYICPNCTI: -0.184 ± 0.079; GYDPNALYCICRQPHVNRFMICCDRCEEWFHGDCVGISEARGRLLERNGEDYICPNCTI: -0.045 ± 0.057.
Turning to GYDPNALYCICRQPHLNRFMICCDRCEEWFHGDCVGISEARGRLLERNGEDYICPNCTI, the abundance fitness was -0.064 ± 0.056.
Next, GYDPNALYCICRQPHCNRFMICCDRCEEWFHGDCVGISEARGRLLERNGEDYICPNCTI: -0.211 ± 0.089.
Next, GYDPNALYCICRQPHPNRFMICCDRCEEWFHGDCVGISEARGRLLERNGEDYICPNCTI: -0.218 ± 0.074; GYDPNALYCICRQPHKNRFMICCDRCEEWFHGDCVGISEARGRLLERNGEDYICPNCTI: -0.019 ± 0.081; GYDPNALYCICRQPHTNRFMICCDRCEEWFHGDCVGISEARGRLLERNGEDYICPNCTI: 0.058 ± 0.064.
GYDPNALYCICRQPHYNRFMICCDRCEEWFHGDCVGISEARGRLLERNGEDYICPNCTI: the abundance fitness was -0.399 ± 0.15.
Next, GYDPNALYCICRQPHHNRFMICCDRCEEWFHGDCVGISEARGRLLERNGEDYICPNCTI: 0.108 ± 0.13; GYDPNALYCICRQPHMNRFMICCDRCEEWFHGDCVGISEARGRLLERNGEDYICPNCTI: 0.065 ± 0.055; GYDPNALYCICRQPHENRFMICCDRCEEWFHGDCVGISEARGRLLERNGEDYICPNCTI: 0.072 ± 0.082.
For GYDPNALYCICRQSHNNRFMICCDRCEEWFHGDCVGISEARGRLLERNGEDYICPNCTI, the abundance fitness stood at 0.035 ± 0.056.
Next, GYDPNALYCICRQYHNNRFMICCDRCEEWFHGDCVGISEARGRLLERNGEDYICPNCTI: 0.111 ± 0.087; GYDPNALYCICRQWHNNRFMICCDRCEEWFHGDCVGISEARGRLLERNGEDYICPNCTI: -0.496 ± 0.17; GYDPNALYCICRQLHNNRFMICCDRCEEWFHGDCVGISEARGRLLERNGEDYICPNCTI: 0.022 ± 0.054.
Next, GYDPNALYCICRQTHNNRFMICCDRCEEWFHGDCVGISEARGRLLERNGEDYICPNCTI: 0.031 ± 0.064; GYDPNALYCICRQMHNNRFMICCDRCEEWFHGDCVGISEARGRLLERNGEDYICPNCTI: 0.004 ± 0.098; GYDPNALYCICRQNHNNRFMICCDRCEEWFHGDCVGISEARGRLLERNGEDYICPNCTI: -0.003 ± 0.073.
With GYDPNALYCICRQKHNNRFMICCDRCEEWFHGDCVGISEARGRLLERNGEDYICPNCTI, the abundance fitness came to 0.201 ± 0.055.
Next, GYDPNALYCICRQQHNNRFMICCDRCEEWFHGDCVGISEARGRLLERNGEDYICPNCTI: 0.079 ± 0.11.
Next, GYDPNALYCICRQVHNNRFMICCDRCEEWFHGDCVGISEARGRLLERNGEDYICPNCTI: 0.07 ± 0.05; GYDPNALYCICRQPANNRFMICCDRCEEWFHGDCVGISEARGRLLERNGEDYICPNCTI: -0.088 ± 0.073.
Next, GYDPNALYCICRQPCNNRFMICCDRCEEWFHGDCVGISEARGRLLERNGEDYICPNCTI: 0.018 ± 0.09; GYDPNALYCICRQPPNNRFMICCDRCEEWFHGDCVGISEARGRLLERNGEDYICPNCTI: -0.126 ± 0.079; GYDPNALYCICRQPYNNRFMICCDRCEEWFHGDCVGISEARGRLLERNGEDYICPNCTI: -0.025 ± 0.093.
As to GYDPNALYCICRQPKNNRFMICCDRCEEWFHGDCVGISEARGRLLERNGEDYICPNCTI, the abundance fitness is -0.121 ± 0.075.
Next, GYDPNALYCICRQPFNNRFMICCDRCEEWFHGDCVGISEARGRLLERNGEDYICPNCTI: -0.414 ± 0.16.
Consider GYDPNALYCICRQPWNNRFMICCDRCEEWFHGDCVGISEARGRLLERNGEDYICPNCTI, for which the abundance fitness was -0.037 ± 0.063.
Next, GYDPNALYCICRQPVNNRFMICCDRCEEWFHGDCVGISEARGRLLERNGEDYICPNCTI: 0.076 ± 0.05; GYDPNALYCICRQPMNNRFMICCDRCEEWFHGDCVGISEARGRLLERNGEDYICPNCTI: 0.138 ± 0.065.
Next, GYDPNALYCICRQPINNRFMICCDRCEEWFHGDCVGISEARGRLLERNGEDYICPNCTI: -0.039 ± 0.082.
Next, GYDPNALYCICRQPENNRFMICCDRCEEWFHGDCVGISEARGRLLERNGEDYICPNCTI: 0.029 ± 0.094; GYDPNALYCICRQPDNNRFMICCDRCEEWFHGDCVGISEARGRLLERNGEDYICPNCTI: 0.073 ± 0.11.
Turning to GYDPNALYCICRQPSNNRFMICCDRCEEWFHGDCVGISEARGRLLERNGEDYICPNCTI, the abundance fitness stood at 0.164 ± 0.053.
Next, GYDPNALYCICRQPLNNRFMICCDRCEEWFHGDCVGISEARGRLLERNGEDYICPNCTI: 0.058 ± 0.049; GYDPNALYCICRQPGNNRFMICCDRCEEWFHGDCVGISEARGRLLERNGEDYICPNCTI: 0.017 ± 0.055; GYDPNALYCICRQPQNNRFMICCDRCEEWFHGDCVGISEARGRLLERNGEDYICPNCTI: -0.148 ± 0.11.
Next, GYDPNALYCICRQPNNNRFMICCDRCEEWFHGDCVGISEARGRLLERNGEDYICPNCTI: 0.051 ± 0.092; GYDPNALYCICRQPHNSRFMICCDRCEEWFHGDCVGISEARGRLLERNGEDYICPNCTI: -0.111 ± 0.054.
